B1: Biotin-labeled SUMO-fusion mouse TRIM14 (residues 247-440) (domain or fragment, UniProt Q8BVW3 247-440, looked up)
chain: ALLKTSPSPERALFLKYARTPTLDPDTMHARLRLSPDGLTVRCSLLGRLGPRPAPRFDALRQVLGRDGFAAGRHYWEVDVQEAGVGWWVGAAYPSLRRRGASAAARLGCNRESWCVKRYDLEYWAFHDGQRSRLRPRRDPHRLGVFLDYEAGILAFYDVAGGMSHLHTFHAAFQEPLYPALRLWEGPISIPRLP
modifications: biotin (Avi tag, labelled by BirA)

Columns and labels:
Test in all cases: SPR
[1] = biological target: Biotin-labeled SUMO-fusion mouse TRIM14 (residues 247-440) (mouse) (UniProt Q8BVW3)
[2] = biological target: human cGAS (residues 157-522) (human, UniProt Q8N884 157-522)
full-length human TBK1 = biological target: T1, full-length human TBK1 (human, UniProt Q9UHD2 1-729)
T1 sequence (looked up): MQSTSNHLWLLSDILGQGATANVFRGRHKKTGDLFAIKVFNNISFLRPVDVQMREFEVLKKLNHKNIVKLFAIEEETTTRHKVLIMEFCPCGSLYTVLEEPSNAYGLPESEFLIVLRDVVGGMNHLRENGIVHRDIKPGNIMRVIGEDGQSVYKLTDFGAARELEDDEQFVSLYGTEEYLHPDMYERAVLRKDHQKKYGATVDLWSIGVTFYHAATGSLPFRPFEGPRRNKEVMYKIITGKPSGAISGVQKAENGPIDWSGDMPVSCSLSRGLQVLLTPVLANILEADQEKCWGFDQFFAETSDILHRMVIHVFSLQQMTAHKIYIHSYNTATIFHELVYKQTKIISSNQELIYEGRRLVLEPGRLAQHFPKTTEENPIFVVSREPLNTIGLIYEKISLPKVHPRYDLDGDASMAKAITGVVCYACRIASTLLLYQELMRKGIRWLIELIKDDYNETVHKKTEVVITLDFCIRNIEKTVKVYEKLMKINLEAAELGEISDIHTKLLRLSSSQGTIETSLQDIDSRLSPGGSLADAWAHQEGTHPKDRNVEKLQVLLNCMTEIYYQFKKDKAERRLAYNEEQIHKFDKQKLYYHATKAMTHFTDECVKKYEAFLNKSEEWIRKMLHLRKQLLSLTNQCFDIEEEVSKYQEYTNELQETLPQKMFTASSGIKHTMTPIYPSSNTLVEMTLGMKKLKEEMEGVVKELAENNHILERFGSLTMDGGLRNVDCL

Sequence of human cGAS (residues 157-522) (Q8N884 157-522): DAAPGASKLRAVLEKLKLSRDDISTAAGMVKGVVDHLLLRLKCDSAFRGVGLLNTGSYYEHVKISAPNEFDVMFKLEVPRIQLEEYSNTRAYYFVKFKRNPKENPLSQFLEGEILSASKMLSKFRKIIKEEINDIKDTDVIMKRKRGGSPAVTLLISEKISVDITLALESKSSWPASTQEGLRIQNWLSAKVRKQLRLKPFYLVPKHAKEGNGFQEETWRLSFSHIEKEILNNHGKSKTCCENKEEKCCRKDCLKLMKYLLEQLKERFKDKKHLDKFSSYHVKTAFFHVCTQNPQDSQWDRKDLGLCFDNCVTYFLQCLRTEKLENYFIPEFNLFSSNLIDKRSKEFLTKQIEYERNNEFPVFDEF

| Molecule | Kd [1] | Kd [2] | Kd (full-length human TBK1) |
| --- | --- | --- | --- |
| human TBK1 (residues 1 to 657) (from UniProt Q9UHD2 1-657) (domain or fragment) | 42.6 µM | – | – |
| mouse TBK1 (residues 1 to 657) (from UniProt Q9WUN2 1-657) (domain or fragment) | 24.3 µM | – | – |
| B1 | – | 25.8 µM | 11 µM |
